{
  "source": "the RNAGym collection of RNA variant scans (doi:10.1093/molbev/msab373)",
  "parents": {"B1": {"name": "Azoarcus group I ribozyme (parent)", "chain": "GUGCCUUGCGCCGGGAAACCACGCAAGGGAUGGUGUCAAAUUCGGCGAAACCUAAGCGCCCGCCCGGGCGUAUGGCAACGCCGAGCCAAGCUUCGGCGCCUGCGCCGAUGAAGGUGUAGAGACUAGACGGCACCCACCUAAGGCAAACGCUAUGGUGAAGGCAUAGUCCAGGGAGUGGCGAAAGUCACACAAACCGG"}},
  "data": [
    {"variants_of": "B1", "assay": "reverse-splicing fitness (ratio to wild type); higher = more active; in vitro selection; Mg2+ level not given", "how_it_was_run": "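An in vitro group I ribozyme library with randomized positions was T7-transcribed and gel-purified. In triplicate, 10 pmol RNA in EPPS pH 7.5 was reacted with 50 pmoles of a 30-nt RNA substrate for 1 h at 37 °C across several added MgCl2 levels (1–48 mM), then stopped with EDTA. Products were reverse transcribed from a substrate-complementary primer, PCR-amplified and sequenced (HiSeq 4000). Fitness is a variant's read proportion after selection over that before, normalised to wild type.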", "values": [
      {"variant": "GUGCCUUGCGCCGGGAAACCACGCAAGGGAUGGUGUCAAAUUCGGCGAAACCUAAGCGCCCGCCCGGGCGUAUGGCAACGCCGAGCCAAGCUUCGGCGCCUGCGCCGAUGGAGGUGUAGAGACUAGACGGCACCCACCUAAGGCGAACGUUAUGGUGAAGGCAUAGUCGAGGGAGGGGCGAAAGUCACACAAACCGG", "reverse-splicing fitness": 0.00595},
      {"variant": "GUGCCUUGCGCCGGGAAACCACGCAAGGGAUGGUGUCAAAUUCGGCGAAACCUAAGCGCCCGCCCGGGCGUAUGGCAACGCCGAGCCAAGCUUCGGCGCCUGCGCCGAUGGAGGUGUAGAGACUAGACGGCACCCACCUAAGGCGAACGUUAUGGUGAAGGCAUAGUCGAGGGAGAGGCGAAAGUCACACAAACCGG", "reverse-splicing fitness": 0.0289},
      {"variant": "GUGCCUUGCGCCGGGAAACCACGCAAGGGAUGGUGUCAAAUUCGGCGAAACCUAAGCGCCCGCCCGGGCGUAUGGCAACGCCGAGCCAAGCUUCGGCGCCUGCGCCGAUGGAGGUGUAGAGACUAGACGGCACCCACCUAAGGCGAACGUUAUGGUGAAGGCAUAGUCGAGGGAGCGGCGAAAGUCACACAAACCGG", "reverse-splicing fitness": 0.0431},
      {"variant": "GUGCCUUGCGCCGGGAAACCACGCAAGGGAUGGUGUCAAAUUCGGCGAAACCUAAGCGCCCGCCCGGGCGUAUGGCAACGCCGAGCCAAGCUUCGGCGCCUGCGCCGAUGGAGGUGUAGAGACUAGACGGCACCCACCUAAGGCGAACGGUAUGGUGAAGGCAUAGUCUAGGGAGUGGCGAAAGUCACACAAACCGG", "reverse-splicing fitness": 0.0298},
      {"variant": "GUGCCUUGCGCCGGGAAACCACGCAAGGGAUGGUGUCAAAUUCGGCGAAACCUAAGCGCCCGCCCGGGCGUAUGGCAACGCCGAGCCAAGCUUCGGCGCCUGCGCCGAUGGAGGUGUAGAGACUAGACGGCACCCACCUAAGGCGAACGGUAUGGUGAAGGCAUAGUCAAGGGAGUGGCGAAAGUCACACAAACCGG", "reverse-splicing fitness": 0.0128},
      {"variant": "GUGCCUUGCGCCGGGAAACCACGCAAGGGAUGGUGUCAAAUUCGGCGAAACCUAAGCGCCCGCCCGGGCGUAUGGCAACGCCGAGCCAAGCUUCGGCGCCUGCGCCGAUGGAGGUGUAGAGACUAGACGGCACCCACCUAAGGCGAACGGUAUGGUGAAGGCAUAGUCGAGGGAGUGGCGAAAGUCACACAAACCGG", "reverse-splicing fitness": 0.0171},
      {"variant": "GUGCCUUGCGCCGGGAAACCACGCAAGGGAUGGUGUCAAAUUCGGCGAAACCUAAGCGCCCGCCCGGGCGUAUGGCAACGCCGAGCCAAGCUUCGGCGCCUGCGCCGAUGGAGGUGUAGAGACUAGACGGCACCCACCUAAGGCGAACGUUAUGGUGAAGGCAUAGUCCAGGGAGAGGCGAAAGUCACACAAACCGG", "reverse-splicing fitness": 0.72},
      {"variant": "GUGCCUUGCGCCGGGAAACCACGCAAGGGAUGGUGUCAAAUUCGGCGAAACCUAAGCGCCCGCCCGGGCGUAUGGCAACGCCGAGCCAAGCUUCGGCGCCUGCGCCGAUGGAGGUGUAGAGACUAGACGGCACCCACCUAAGGCGAACGUUAUGGUGAAGGCAUAGUCCAGGGAGUGGCGAAAGUCACACAAACCGG", "reverse-splicing fitness": 0.941},
      {"variant": "GUGCCUUGCGCCGGGAAACCACGCAAGGGAUGGUGUCAAAUUCGGCGAAACCUAAGCGCCCGCCCGGGCGUAUGGCAACGCCGAGCCAAGCUUCGGCGCCUGCGCCGAUGGAGGUGUAGAGACUAGACGGCACCCACCUAAGGCGAACGGUAUGGUGAAGGCAUAGUCCAGGGAGUGGCGAAAGUCACACAAACCGG", "reverse-splicing fitness": 0.364},
      {"variant": "GUGCCUUGCGCCGGGAAACCACGCAAGGGAUGGUGUCAAAUUCGGCGAAACCUAAGCGCCCGCCCGGGCGUAUGGCAACGCCGAGCCAAGCUUCGGCGCCUGCGCCGAUGGAGGUGUAGAGACUAGACGGCACCCACCUAAGGCGAACGUUAUGGUGAAGGCAUAGUCUAGGGAGAGGCGAAAGUCACACAAACCGG", "reverse-splicing fitness": 0.0415},
      {"variant": "GUGCCUUGCGCCGGGAAACCACGCAAGGGAUGGUGUCAAAUUCGGCGAAACCUAAGCGCCCGCCCGGGCGUAUGGCAACGCCGAGCCAAGCUUCGGCGCCUGCGCCGAUGGAGGUGUAGAGACUAGACGGCACCCACCUAAGGCGAACGUUAUGGUGAAGGCAUAGUCUAGGGAGCGGCGAAAGUCACACAAACCGG", "reverse-splicing fitness": 0.0611},
      {"variant": "GUGCCUUGCGCCGGGAAACCACGCAAGGGAUGGUGUCAAAUUCGGCGAAACCUAAGCGCCCGCCCGGGCGUAUGGCAACGCCGAGCCAAGCUUCGGCGCCUGCGCCGAUGGAGGUGUAGAGACUAGACGGCACCCACCUAAGGCGAACGUUAUGGUGAAGGCAUAGUCUAGGGAGGGGCGAAAGUCACACAAACCGG", "reverse-splicing fitness": 0.00616},
      {"variant": "GUGCCUUGCGCCGGGAAACCACGCAAGGGAUGGUGUCAAAUUCGGCGAAACCUAAGCGCCCGCCCGGGCGUAUGGCAACGCCGAGCCAAGCUUCGGCGCCUGCGCCGAUGGAGGUGUAGAGACUAGACGGCACCCACCUAAGGCGAACGGUAUGGUGAAGGCAUAGUCGAGGGAGAGGCGAAAGUCACACAAACCGG", "reverse-splicing fitness": 0.00939},
      {"variant": "GUGCCUUGCGCCGGGAAACCACGCAAGGGAUGGUGUCAAAUUCGGCGAAACCUAAGCGCCCGCCCGGGCGUAUGGCAACGCCGAGCCAAGCUUCGGCGCCUGCGCCGAUGGAGGUGUAGAGACUAGACGGCACCCACCUAAGGCGAACGGUAUGGUGAAGGCAUAGUCGAGGGAGGGGCGAAAGUCACACAAACCGG", "reverse-splicing fitness": 0.00506},
      {"variant": "GUGCCUUGCGCCGGGAAACCACGCAAGGGAUGGUGUCAAAUUCGGCGAAACCUAAGCGCCCGCCCGGGCGUAUGGCAACGCCGAGCCAAGCUUCGGCGCCUGCGCCGAUGGAGGUGUAGAGACUAGACGGCACCCACCUAAGGCGAACGGUAUGGUGAAGGCAUAGUCGAGGGAGCGGCGAAAGUCACACAAACCGG", "reverse-splicing fitness": 0.00813},
      {"variant": "GUGCCUUGCGCCGGGAAACCACGCAAGGGAUGGUGUCAAAUUCGGCGAAACCUAAGCGCCCGCCCGGGCGUAUGGCAACGCCGAGCCAAGCUUCGGCGCCUGCGCCGAUGGAGGUGUAGAGACUAGACGGCACCCACCUAAGGCGAACGGUAUGGUGAAGGCAUAGUCAAGGGAGGGGCGAAAGUCACACAAACCGG", "reverse-splicing fitness": 0.00761},
      {"variant": "GUGCCUUGCGCCGGGAAACCACGCAAGGGAUGGUGUCAAAUUCGGCGAAACCUAAGCGCCCGCCCGGGCGUAUGGCAACGCCGAGCCAAGCUUCGGCGCCUGCGCCGAUGGAGGUGUAGAGACUAGACGGCACCCACCUAAGGCGAACGGUAUGGUGAAGGCAUAGUCAAGGGAGAGGCGAAAGUCACACAAACCGG", "reverse-splicing fitness": 0.0122},
      {"variant": "GUGCCUUGCGCCGGGAAACCACGCAAGGGAUGGUGUCAAAUUCGGCGAAACCUAAGCGCCCGCCCGGGCGUAUGGCAACGCCGAGCCAAGCUUCGGCGCCUGCGCCGAUGGAGGUGUAGAGACUAGACGGCACCCACCUAAGGCGAACGGUAUGGUGAAGGCAUAGUCAAGGGAGCGGCGAAAGUCACACAAACCGG", "reverse-splicing fitness": 0.0135},
      {"variant": "GUGCCUUGCGCCGGGAAACCACGCAAGGGAUGGUGUCAAAUUCGGCGAAACCUAAGCGCCCGCCCGGGCGUAUGGCAACGCCGAGCCAAGCUUCGGCGCCUGCGCCGAUGGAGGUGUAGAGACUAGACGGCACCCACCUAAGGCGAACGUUAUGGUGAAGGCAUAGUCAAGGGAGUGGCGAAAGUCACACAAACCGG", "reverse-splicing fitness": 0.0452},
      {"variant": "GUGCCUUGCGCCGGGAAACCACGCAAGGGAUGGUGUCAAAUUCGGCGAAACCUAAGCGCCCGCCCGGGCGUAUGGCAACGCCGAGCCAAGCUUCGGCGCCUGCGCCGAUGGAGGUGUAGAGACUAGACGGCACCCACCUAAGGCGAACGUUAUGGUGAAGGCAUAGUCUAGGGAGUGGCGAAAGUCACACAAACCGG", "reverse-splicing fitness": 0.168},
      {"variant": "GUGCCUUGCGCCGGGAAACCACGCAAGGGAUGGUGUCAAAUUCGGCGAAACCUAAGCGCCCGCCCGGGCGUAUGGCAACGCCGAGCCAAGCUUCGGCGCCUGCGCCGAUGGAGGUGUAGAGACUAGACGGCACCCACCUAAGGCGAACGUUAUGGUGAAGGCAUAGUCGAGGGAGUGGCGAAAGUCACACAAACCGG", "reverse-splicing fitness": 0.101},
      {"variant": "GUGCCUUGCGCCGGGAAACCACGCAAGGGAUGGUGUCAAAUUCGGCGAAACCUAAGCGCCCGCCCGGGCGUAUGGCAACGCCGAGCCAAGCUUCGGCGCCUGCGCCGAUGGAGGUGUAGAGACUAGACGGCACCCACCUAAGGCGAACGUUAUGGUGAAGGCAUAGUCAAGGGAGAGGCGAAAGUCACACAAACCGG", "reverse-splicing fitness": 0.0193},
      {"variant": "GUGCCUUGCGCCGGGAAACCACGCAAGGGAUGGUGUCAAAUUCGGCGAAACCUAAGCGCCCGCCCGGGCGUAUGGCAACGCCGAGCCAAGCUUCGGCGCCUGCGCCGAUGGAGGUGUAGAGACUAGACGGCACCCACCUAAGGCGAACGUUAUGGUGAAGGCAUAGUCAAGGGAGCGGCGAAAGUCACACAAACCGG", "reverse-splicing fitness": 0.0252},
      {"variant": "GUGCCUUGCGCCGGGAAACCACGCAAGGGAUGGUGUCAAAUUCGGCGAAACCUAAGCGCCCGCCCGGGCGUAUGGCAACGCCGAGCCAAGCUUCGGCGCCUGCGCCGAUGGAGGUGUAGAGACUAGACGGCACCCACCUAAGGCGAACGUUAUGGUGAAGGCAUAGUCAAGGGAGGGGCGAAAGUCACACAAACCGG", "reverse-splicing fitness": 0.00505},
      {"variant": "GUGCCUUGCGCCGGGAAACCACGCAAGGGAUGGUGUCAAAUUCGGCGAAACCUAAGCGCCCGCCCGGGCGUAUGGCAACGCCGAGCCAAGCUUCGGCGCCUGCGCCGAUGGAGGUGUAGAGACUAGACGGCACCCACCUAAGGCGAACGGUAUGGUGAAGGCAUAGUCCAGGGAGAGGCGAAAGUCACACAAACCGG", "reverse-splicing fitness": 0.111},
      {"variant": "GUGCCUUGCGCCGGGAAACCACGCAAGGGAUGGUGUCAAAUUCGGCGAAACCUAAGCGCCCGCCCGGGCGUAUGGCAACGCCGAGCCAAGCUUCGGCGCCUGCGCCGAUGGAGGUGUAGAGACUAGACGGCACCCACCUAAGGCGAACGGUAUGGUGAAGGCAUAGUCCAGGGAGCGGCGAAAGUCACACAAACCGG", "reverse-splicing fitness": 0.184},
      {"variant": "GUGCCUUGCGCCGGGAAACCACGCAAGGGAUGGUGUCAAAUUCGGCGAAACCUAAGCGCCCGCCCGGGCGUAUGGCAACGCCGAGCCAAGCUUCGGCGCCUGCGCCGAUGGAGGUGUAGAGACUAGACGGCACCCACCUAAGGCGAACGGUAUGGUGAAGGCAUAGUCCAGGGAGGGGCGAAAGUCACACAAACCGG", "reverse-splicing fitness": 0.0237},
      {"variant": "GUGCCUUGCGCCGGGAAACCACGCAAGGGAUGGUGUCAAAUUCGGCGAAACCUAAGCGCCCGCCCGGGCGUAUGGCAACGCCGAGCCAAGCUUCGGCGCCUGCGCCGAUGGAGGUGUAGAGACUAGACGGCACCCACCUAAGGCGAACGGUAUGGUGAAGGCAUAGUCUAGGGAGAGGCGAAAGUCACACAAACCGG", "reverse-splicing fitness": 0.011},
      {"variant": "GUGCCUUGCGCCGGGAAACCACGCAAGGGAUGGUGUCAAAUUCGGCGAAACCUAAGCGCCCGCCCGGGCGUAUGGCAACGCCGAGCCAAGCUUCGGCGCCUGCGCCGAUGGAGGUGUAGAGACUAGACGGCACCCACCUAAGGCGAACGGUAUGGUGAAGGCAUAGUCUAGGGAGGGGCGAAAGUCACACAAACCGG", "reverse-splicing fitness": 0.00609},
      {"variant": "GUGCCUUGCGCCGGGAAACCACGCAAGGGAUGGUGUCAAAUUCGGCGAAACCUAAGCGCCCGCCCGGGCGUAUGGCAACGCCGAGCCAAGCUUCGGCGCCUGCGCCGAUGGAGGUGUAGAGACUAGACGGCACCCACCUAAGGCGAACGGUAUGGUGAAGGCAUAGUCUAGGGAGCGGCGAAAGUCACACAAACCGG", "reverse-splicing fitness": 0.0172}
    ]}
  ]
}
